# Experimental data from PMC9482650, “Quantitative fragmentomics allow affinity mapping of interactomes” (Nature Communications, 2022).
# T1: APBA2_1, Q99767
# T1 sequence (Q99767 563-664, limits assumed, looked up): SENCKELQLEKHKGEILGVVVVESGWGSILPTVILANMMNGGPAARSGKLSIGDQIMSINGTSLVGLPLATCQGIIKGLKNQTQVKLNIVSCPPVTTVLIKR
# T2: ARHGEF11, O15085
# T2 sequence (O15085 42-136, limits assumed, looked up): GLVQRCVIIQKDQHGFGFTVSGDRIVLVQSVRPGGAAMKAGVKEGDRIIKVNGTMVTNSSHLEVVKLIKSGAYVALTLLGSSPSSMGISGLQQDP
# T3: DLG3_1, Q92796
# T3 sequence (Q92796 125-227, limits assumed, looked up): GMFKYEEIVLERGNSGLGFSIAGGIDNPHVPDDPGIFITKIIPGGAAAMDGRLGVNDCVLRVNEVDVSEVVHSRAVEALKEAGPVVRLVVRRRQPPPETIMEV
# T4: DVL3, Q92997
# T4 sequence (Q92997 244-331, limits assumed, looked up): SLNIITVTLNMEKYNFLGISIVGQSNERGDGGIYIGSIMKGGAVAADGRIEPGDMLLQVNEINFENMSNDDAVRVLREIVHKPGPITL
# T5: GRIP1_3, Q9Y3R0
# T5 sequence (Q9Y3R0 247-346, limits assumed, looked up): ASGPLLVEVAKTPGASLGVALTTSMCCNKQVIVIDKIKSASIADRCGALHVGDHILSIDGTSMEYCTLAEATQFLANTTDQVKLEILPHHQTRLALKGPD
# T6: GRIP1_5, Q9Y3R0
# T6 sequence (Q9Y3R0 568-668, limits assumed, looked up): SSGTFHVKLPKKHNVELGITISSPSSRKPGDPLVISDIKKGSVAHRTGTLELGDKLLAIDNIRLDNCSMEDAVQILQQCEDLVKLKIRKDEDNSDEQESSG
# T7: HTRA4, P83105
# T7 sequence (P83105 378-476, limits assumed, looked up): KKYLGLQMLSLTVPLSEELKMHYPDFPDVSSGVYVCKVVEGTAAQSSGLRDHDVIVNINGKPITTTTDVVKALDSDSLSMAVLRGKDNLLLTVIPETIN
# T8: LNX2_2, Q8N448
# T8 sequence (Q8N448 334-432, limits assumed, looked up): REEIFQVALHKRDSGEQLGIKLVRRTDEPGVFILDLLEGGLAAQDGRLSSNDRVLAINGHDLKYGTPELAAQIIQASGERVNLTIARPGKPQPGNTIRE
# T9: NHERF3_1, Q5T2W1
# T9 sequence (Q5T2W1 4-100, limits assumed, looked up): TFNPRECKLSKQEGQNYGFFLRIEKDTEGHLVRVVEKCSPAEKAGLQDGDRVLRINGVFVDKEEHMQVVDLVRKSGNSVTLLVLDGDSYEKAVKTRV
# T10: RHPN1, Q8TCX5
# T10 sequence (Q8TCX5 508-602, limits assumed, looked up): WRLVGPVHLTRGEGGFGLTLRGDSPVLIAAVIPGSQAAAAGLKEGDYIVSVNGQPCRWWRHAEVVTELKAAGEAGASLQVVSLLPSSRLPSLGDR
# T11: SNTG1, Q9NSN8
# T11 sequence (Q9NSN8 52-150, limits assumed, looked up): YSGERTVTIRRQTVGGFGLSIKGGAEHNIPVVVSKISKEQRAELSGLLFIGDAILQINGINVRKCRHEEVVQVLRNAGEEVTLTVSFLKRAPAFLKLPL
# What was measured:
# Assay in all cases: holdup assay
# Set-up in all cases: key: below the threshold = too weak to quantify, mostly under pKd 3.1 to 4
# APBA2_1, Q99767 = molecular target: T1, APBA2_1, Q99767
# ARHGEF11, O15085 = molecular target: T2, ARHGEF11, O15085
# DLG1_1, Q12959 = molecular target: DLG1_1, Q12959
# DLG3_1, Q92796 = molecular target: T3, DLG3_1, Q92796
# DLG4_1, P78352 = molecular target: DLG4_1, P78352
# Chain of DLG4_1, P78352 (P78352 62-152): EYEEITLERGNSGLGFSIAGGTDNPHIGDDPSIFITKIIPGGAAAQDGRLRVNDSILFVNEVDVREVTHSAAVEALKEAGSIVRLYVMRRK
# DVL3, Q92997 = molecular target: T4, DVL3, Q92997
# FRMPD2_3, Q68DX3 = molecular target: FRMPD2_3, Q68DX3
# Chain of FRMPD2_3, Q68DX3 (Q68DX3 1073-1166): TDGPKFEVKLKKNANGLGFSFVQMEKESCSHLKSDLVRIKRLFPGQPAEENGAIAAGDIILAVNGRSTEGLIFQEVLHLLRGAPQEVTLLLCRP
# FRMPD4, Q14CM0 = molecular target: FRMPD4, Q14CM0
# Chain of FRMPD4, Q14CM0 (Q14CM0 67-160): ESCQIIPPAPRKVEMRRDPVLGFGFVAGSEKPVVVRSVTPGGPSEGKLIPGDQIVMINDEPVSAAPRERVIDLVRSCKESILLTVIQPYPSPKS
# GRIP1_3, Q9Y3R0 = molecular target: T5, GRIP1_3, Q9Y3R0
# GRIP1_5, Q9Y3R0 = molecular target: T6, GRIP1_5, Q9Y3R0
# GRIP2_5, Q9C0E4 = molecular target: GRIP2_5, Q9C0E4
# Chain of GRIP2_5, Q9C0E4 (Q9C0E4 544-642): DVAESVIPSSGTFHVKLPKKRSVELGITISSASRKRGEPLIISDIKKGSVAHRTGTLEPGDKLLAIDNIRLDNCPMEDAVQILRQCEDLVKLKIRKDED
# HTRA4, P83105 = molecular target: T7, HTRA4, P83105
# Inadl_2, Q8NI35 = molecular target: Inadl_2, Q8NI35
# Chain of Inadl_2, Q8NI35 (Q8NI35 238-335): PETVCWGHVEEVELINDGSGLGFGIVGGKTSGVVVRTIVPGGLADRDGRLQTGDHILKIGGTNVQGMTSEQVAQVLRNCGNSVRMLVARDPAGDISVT
# Inadl_4, Q8NI35 = molecular target: Inadl_4, Q8NI35
# Chain of Inadl_4, Q8NI35 (Q8NI35 547-651): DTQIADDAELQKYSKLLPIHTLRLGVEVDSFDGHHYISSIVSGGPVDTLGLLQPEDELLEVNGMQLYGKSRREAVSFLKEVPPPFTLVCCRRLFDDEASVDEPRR
# Inadl_5, Q8NI35 = molecular target: Inadl_5, Q8NI35
# Chain of Inadl_5, Q8NI35 (Q8NI35 673-780): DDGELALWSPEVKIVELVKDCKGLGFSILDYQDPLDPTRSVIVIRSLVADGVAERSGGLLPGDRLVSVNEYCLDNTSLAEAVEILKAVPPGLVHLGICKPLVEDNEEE
# Inadl_6, Q8NI35 = molecular target: Inadl_6, Q8NI35
# Chain of Inadl_6, Q8NI35 (Q8NI35 1058-1167): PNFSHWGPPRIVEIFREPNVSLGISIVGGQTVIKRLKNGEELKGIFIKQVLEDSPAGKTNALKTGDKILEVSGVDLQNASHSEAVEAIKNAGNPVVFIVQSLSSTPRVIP
# LDB3, O75112 = molecular target: LDB3, O75112
# Chain of LDB3, O75112 (O75112 1-94): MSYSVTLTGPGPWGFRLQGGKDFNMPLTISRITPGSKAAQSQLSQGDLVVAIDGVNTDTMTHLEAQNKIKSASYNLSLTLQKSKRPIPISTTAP
# LNX2_2, Q8N448 = molecular target: T8, LNX2_2, Q8N448
# MAGI1_1, Q96QZ7 = molecular target: MAGI1_1, Q96QZ7
# Chain of MAGI1_1, Q96QZ7 (Q96QZ7 1-106): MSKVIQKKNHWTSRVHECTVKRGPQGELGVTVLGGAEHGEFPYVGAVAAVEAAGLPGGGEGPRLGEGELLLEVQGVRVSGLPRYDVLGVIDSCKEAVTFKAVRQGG
# MAGI1_2, Q96QZ7 = molecular target: MAGI1_2, Q96QZ7
# Chain of MAGI1_2, Q96QZ7 (Q96QZ7 456-580): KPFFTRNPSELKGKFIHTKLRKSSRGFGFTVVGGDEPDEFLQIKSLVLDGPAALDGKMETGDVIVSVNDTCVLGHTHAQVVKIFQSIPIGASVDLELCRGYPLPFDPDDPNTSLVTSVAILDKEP
# MAGI2_4, Q86UL8 = molecular target: MAGI2_4, Q86UL8
# Chain of MAGI2_4, Q86UL8 (Q86UL8 772-865): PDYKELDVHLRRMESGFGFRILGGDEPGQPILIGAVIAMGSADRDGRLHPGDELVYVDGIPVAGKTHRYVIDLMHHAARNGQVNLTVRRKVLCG
# MAGI2_6, Q86UL8 = molecular target: MAGI2_6, Q86UL8
# Chain of MAGI2_6, Q86UL8 (Q86UL8 1141-1229): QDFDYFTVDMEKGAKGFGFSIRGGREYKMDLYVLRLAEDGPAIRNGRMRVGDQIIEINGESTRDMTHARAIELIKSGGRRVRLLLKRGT
# NHERF3_1, Q5T2W1 = molecular target: T9, NHERF3_1, Q5T2W1
# PDZRN4_1, Q6ZMN7 = molecular target: PDZRN4_1, Q6ZMN7
# Chain of PDZRN4_1, Q6ZMN7 (Q6ZMN7 213-318): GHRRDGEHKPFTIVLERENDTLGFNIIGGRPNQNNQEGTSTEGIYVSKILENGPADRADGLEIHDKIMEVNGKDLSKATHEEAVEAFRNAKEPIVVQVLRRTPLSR
# RHPN1, Q8TCX5 = molecular target: T10, RHPN1, Q8TCX5
# SNTG1, Q9NSN8 = molecular target: T11, SNTG1, Q9NSN8
# TJP2_1, Q9UDY2 = molecular target: TJP2_1, Q9UDY2
# Chain of TJP2_1, Q9UDY2 (Q9UDY2 24-128): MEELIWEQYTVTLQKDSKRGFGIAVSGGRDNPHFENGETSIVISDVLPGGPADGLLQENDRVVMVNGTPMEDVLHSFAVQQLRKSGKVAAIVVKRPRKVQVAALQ
# [1] = plain residues with an end cap or a label only (N-terminal biotin on a linker: ttds)
# [2] = plain residues with an end cap or a label only (N-terminal biotin on a linker: ado-ado)
binder,measurement,setting,value
"DPRNTQTSQI [ABRAXAS2, Q15018]",pKd,"APBA2_1, Q99767; [1]",below the threshold
same,pKd,"ARHGEF11, O15085; [1]",4.03
same,pKd,"DLG1_1, Q12959; [1]",3.49
same,pKd,"DLG3_1, Q92796; [1]",3.56
same,pKd,"DLG4_1, P78352; [1]",3.65
same,pKd,"DVL3, Q92997; [1]",below the threshold
same,pKd,"FRMPD2_3, Q68DX3; [1]",3.54
same,pKd,"FRMPD4, Q14CM0; [1]",below the threshold
same,pKd,"GRIP1_3, Q9Y3R0; [1]",below the threshold
same,pKd,"GRIP1_5, Q9Y3R0; [1]",3.66
same,pKd,"GRIP2_5, Q9C0E4; [1]",below the threshold
same,pKd,"HTRA4, P83105; [1]",3.48
same,pKd,"Inadl_2, Q8NI35; [1]",below the threshold
same,pKd,"Inadl_4, Q8NI35; [1]",below the threshold
same,pKd,"Inadl_5, Q8NI35; [1]",below the threshold
same,pKd,"Inadl_6, Q8NI35; [1]",below the threshold
same,pKd,"LDB3, O75112; [1]",below the threshold
same,pKd,"LNX2_2, Q8N448; [1]",below the threshold
same,pKd,"MAGI1_1, Q96QZ7; [1]",below the threshold
same,pKd,"MAGI1_2, Q96QZ7; [1]",3.52
same,pKd,"MAGI2_4, Q86UL8; [1]",below the threshold
same,pKd,"MAGI2_6, Q86UL8; [1]",below the threshold
same,pKd,"NHERF3_1, Q5T2W1; [1]",3.91
same,pKd,"PDZRN4_1, Q6ZMN7; [1]",3.56
same,pKd,"RHPN1, Q8TCX5; [1]",4.43
same,pKd,"SNTG1, Q9NSN8; [1]",below the threshold
same,pKd,"TJP2_1, Q9UDY2; [1]",below the threshold
"TETASVCTKV [SLC23A1, Q9UHI7]",pKd,"APBA2_1, Q99767; [2]",below the threshold
same,pKd,"ARHGEF11, O15085; [2]",4.24
same,pKd,"DLG1_1, Q12959; [2]",3.84
same,pKd,"DLG3_1, Q92796; [2]",below the threshold
same,pKd,"DLG4_1, P78352; [2]",3.9
same,pKd,"DVL3, Q92997; [2]",below the threshold
same,pKd,"FRMPD2_3, Q68DX3; [2]",below the threshold
same,pKd,"FRMPD4, Q14CM0; [2]",below the threshold
same,pKd,"GRIP1_3, Q9Y3R0; [2]",below the threshold
same,pKd,"GRIP1_5, Q9Y3R0; [2]",below the threshold
same,pKd,"GRIP2_5, Q9C0E4; [2]",below the threshold
same,pKd,"HTRA4, P83105; [2]",4.15
same,pKd,"Inadl_2, Q8NI35; [2]",below the threshold
same,pKd,"Inadl_4, Q8NI35; [2]",below the threshold
same,pKd,"Inadl_5, Q8NI35; [2]",below the threshold
same,pKd,"Inadl_6, Q8NI35; [2]",below the threshold
same,pKd,"LDB3, O75112; [2]",below the threshold
same,pKd,"LNX2_2, Q8N448; [2]",3.91
same,pKd,"MAGI1_1, Q96QZ7; [2]",below the threshold
same,pKd,"MAGI1_2, Q96QZ7; [2]",below the threshold
same,pKd,"MAGI2_4, Q86UL8; [2]",3.58
same,pKd,"MAGI2_6, Q86UL8; [2]",3.69
same,pKd,"NHERF3_1, Q5T2W1; [2]",4.54
same,pKd,"PDZRN4_1, Q6ZMN7; [2]",below the threshold
same,pKd,"RHPN1, Q8TCX5; [2]",4.38
same,pKd,"SNTG1, Q9NSN8; [2]",3.76
same,pKd,"TJP2_1, Q9UDY2; [2]",3.72
"LCALPKVTTV [AGMAT, Q9BSE5]",pKd,"APBA2_1, Q99767; [1]",below the threshold
same,pKd,"ARHGEF11, O15085; [1]",4.52
same,pKd,"DLG1_1, Q12959; [1]",4.97
same,pKd,"DLG3_1, Q92796; [1]",4.27
same,pKd,"DLG4_1, P78352; [1]",4.69
same,pKd,"DVL3, Q92997; [1]",below the threshold
same,pKd,"FRMPD2_3, Q68DX3; [1]",below the threshold
same,pKd,"FRMPD4, Q14CM0; [1]",below the threshold
same,pKd,"GRIP1_3, Q9Y3R0; [1]",below the threshold
same,pKd,"GRIP1_5, Q9Y3R0; [1]",below the threshold
same,pKd,"GRIP2_5, Q9C0E4; [1]",below the threshold
same,pKd,"HTRA4, P83105; [1]",4.66
same,pKd,"Inadl_2, Q8NI35; [1]",below the threshold
same,pKd,"Inadl_4, Q8NI35; [1]",below the threshold
same,pKd,"Inadl_5, Q8NI35; [1]",below the threshold
same,pKd,"Inadl_6, Q8NI35; [1]",3.88
same,pKd,"LDB3, O75112; [1]",below the threshold
same,pKd,"LNX2_2, Q8N448; [1]",5.21
same,pKd,"MAGI1_1, Q96QZ7; [1]",below the threshold
same,pKd,"MAGI1_2, Q96QZ7; [1]",4.1
same,pKd,"MAGI2_4, Q86UL8; [1]",4.55
same,pKd,"MAGI2_6, Q86UL8; [1]",4.64
same,pKd,"NHERF3_1, Q5T2W1; [1]",below the threshold
same,pKd,"PDZRN4_1, Q6ZMN7; [1]",3.75
same,pKd,"RHPN1, Q8TCX5; [1]",4.24
same,pKd,"SNTG1, Q9NSN8; [1]",4.39
same,pKd,"TJP2_1, Q9UDY2; [1]",3.91
"RTRQRNETQV [HPV51-E6, P26554]",pKd,"APBA2_1, Q99767; [1]",below the threshold
same,pKd,"ARHGEF11, O15085; [1]",3.69
same,pKd,"DLG1_1, Q12959; [1]",4.78
same,pKd,"DLG3_1, Q92796; [1]",4.28
same,pKd,"DLG4_1, P78352; [1]",4.9
same,pKd,"DVL3, Q92997; [1]",below the threshold
same,pKd,"FRMPD2_3, Q68DX3; [1]",below the threshold
same,pKd,"FRMPD4, Q14CM0; [1]",below the threshold
same,pKd,"GRIP1_3, Q9Y3R0; [1]",below the threshold
same,pKd,"GRIP1_5, Q9Y3R0; [1]",below the threshold
same,pKd,"GRIP2_5, Q9C0E4; [1]",below the threshold
same,pKd,"HTRA4, P83105; [1]",below the threshold
same,pKd,"Inadl_2, Q8NI35; [1]",below the threshold
same,pKd,"Inadl_4, Q8NI35; [1]",below the threshold
same,pKd,"Inadl_5, Q8NI35; [1]",3.4
same,pKd,"Inadl_6, Q8NI35; [1]",below the threshold
same,pKd,"LDB3, O75112; [1]",below the threshold
same,pKd,"LNX2_2, Q8N448; [1]",3.61
same,pKd,"MAGI1_1, Q96QZ7; [1]",below the threshold
same,pKd,"MAGI1_2, Q96QZ7; [1]",5.93
same,pKd,"MAGI2_4, Q86UL8; [1]",4.4
same,pKd,"MAGI2_6, Q86UL8; [1]",below the threshold
same,pKd,"NHERF3_1, Q5T2W1; [1]",4.17
same,pKd,"PDZRN4_1, Q6ZMN7; [1]",4.16
same,pKd,"RHPN1, Q8TCX5; [1]",3.7
same,pKd,"SNTG1, Q9NSN8; [1]",3.98
same,pKd,"TJP2_1, Q9UDY2; [1]",below the threshold
